In publication PMC7022778:

Target: catalase from Serratia sp. strain I1P (Serratia sp. strain I1P)
Assay: SEC; Superdex-200 in 50 mM Tris HCl pH 8.0 with 0.2 M NaCl, calibrated with standard proteins; native apparent mass compared with the subunit mass by SDS-PAGE

catalase from Serratia sp. strain I1P (enzyme)
stoichiometry N: 4
